Laboratory results published in the supplement of paper PMC9170038.

Test system: K4 kissing-loop RNA reporter
Test: apparent KD of K4 kissing-loop reporter; higher = weaker reporter binding
Conditions: Eterna round: R107
Protocol: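 RNA-MaP round R107: designed RNA switches with theophylline, tryptophan, arginine or FMN aptamers are transcribed on-chip within common flanks. They are titrated with a labelled K4 kissing-loop RNA reporter in RNA-MaP buffer (100 mM Tris pH 7.5, 80 mM KCl, 4 mM MgCl2), without ligand or with the indicated ligand. Median apparent KD per design.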

[1] = input ligand: theophylline 20 uM
[2] = input ligand: tryptophan 2.4 mM
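Note: bound reporter read as fluorescence of individual clusters on recovered sequencing chips by microscopy, with normalized cluster intensities fitted with a binding model.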

Sequence | apparent KD of K4 kissing-loop reporter (input ligand: FMN 200 uM) [µM] | apparent KD of K4 kissing-loop reporter (input ligand: arginine 13.2 mM) [µM] | apparent KD of K4 kissing-loop reporter (input ligand: none) [µM] | apparent KD of K4 kissing-loop reporter [1] [µM] | apparent KD of K4 kissing-loop reporter [2] [µM]
GGCGGCCGCGCGAAAGCGCGGCCGGCCGAUACCAGCGCGACGGCGCGCCCUUGGCAGCGGCGCCGAGUGAUGUUCGGCCUGCCGU [#2 Same State - Theophylline A Attempt #13 (HarryS)] | 0.126 | 0.122 | 0.117 | 0.145 | 0.116
UAAGAAUAAGUAGCAGUGAUGUUGCUACUGCGAGGACCGGUACGGCCGCCACUCGAGUCCUCGAAGCGUCACUGAACGAGGAAUA [whbob_SS_Tryp_A_m13] | 0.319 | 0.283 | 0.328 | 0.433 | 0.187
GAUGAUCGCGCGGCCGCCACUGGUCAGUGAUGUUGACAUUAAUGCGCCGAGUAGUAACGGCGCAGCAGGACCGGGCGCGAUGUAG [#12 K4 Tryptophan B Same State] | 0.144 | 0.141 | 0.145 | 0.121 | 0.163
GGCCGGCCGGGAAGGAGCGGGAGUGAUGUUUUCGCAAAGAAAGAUAUAAAAGAAACGAAAUCCCAGGUAGGUCGCCCGGCCGGUU | 0.0644 | 0.113 | 0.0913 | 0.16 | 0.0664
UGUAAGCGCGUAGAUACCAGCAGACGAGUGAUGUUCGAGAGAUUAAGGAAAAGAAAGUGAUGCCCUUGGCAGCUAAUCAUAAGCG [whbob_Ex_Theo_B_sa95] | 0.278 | 0.3 | 0.288 | 0.323 | 0.182
AUUAUAAAGUCGGCCGCCACUGAGAGUAGUGAUGUUACUCUAUUCCUUUACAUAUUAUAGUUUAUCAGGACCGGGACAUCAGAUU [JR_ExcTryptoB_Sub018] | 0.268 | 0.214 | 0.279 | 0.246 | 0.199
GCAAAACUCAGUGAUGUUGAGAUAUCGGAAGGAGCGCGUGAAAACGCAGGUAGGUCGCCGAUUCAAUGAGUUUCUCGUUGUUUGC [Arginine A K4 20] | 0.248 | 0.305 | 0.318 | 0.303 | 0.288
GCGCGGCCCAGUGAUGUUGGGCCUCGGAGACGAGGACCGGUACGGCCGCCACUCGUCCGCGCAGCUGAGGCAAAAGCCUCGGCAA [Omei KL Tryp A SS B v6] | 0.207 | 0.19 | 0.228 | 0.187 | 0.107
UGUAUGUGAUUUGAUACCAGACCAGCUGGUGGUAUCUGAGUGAUGUUCAGGUAGGUUUGGGUCCCUUGGCAGCAAAUCGCAUACU [KL-SSTheoB26] | 0.168 | 0.118 | 0.153 | 0.15 | 0.147
CCCAAAAUAUGCAGUGAUGUUGCAACCGAUACCAGUAUCGAAAGAUACCCUUGGCAGCGGAAAACCGCAACGUAAUUUAAAAGGG [Ex Theophylline A K4 16] | 0.204 | 0.177 | 0.147 | 0.212 | 0.147
CAUACGAAGCAGUGAUGUUGCUUAUGAGAAGGAGCGCACGAAAGUGCAGGUAGGUCGCUCAGCCAUGUGGACGAAAACGUCCACA [whbob_SS_Arginine_A_sa112] | 0.266 | 0.273 | 0.276 | 0.265 | 0.269
AUUUUAUUAACUGAUACCAGACUUAAUGAUUUGUAAAUUACUAGUGAUGUUAGUGAUUCUGUCCCUUGGCAGCAGUAUUUAUUUA [JR_ExcTheophyB_Sub013] | 0.0762 | 0.0856 | 0.0792 | 0.0876 | 0.0694
GGAUAGGACAGAGGAUAUCCAGUGAUGUUGGAGAAUUCUCCUUCAACAUGUCACAAAAGUGGCAUGGGAGAAGGCUGUCCUAUCG [Mod of Eli's FmnBX 29 v2] | 0.388 | 0.12 | 0.122 | 0.0997 | 0.108
UAAUAAAUUCCAGCGAUAUCGCUCUUCGAAGGAGCGGGCGAAAGUCCAGGUAGGUCGCGGAGAGUGAUGUUCUUUGCGGCGCUGG [whbob_Ex_Arginine_A_2t134] | 0.408 | 0.315 | 0.4 | 0.407 | 0.244
UCCUGCAAUCCGCCACGAAAGUGGAUGGAUACCAGAGUCGAAAGACUCCCUUGGCAGCCAGUGAUGUUGGAAGCAGGUAAAUAAA | 0.819 | 0.645 | 0.715 | 0.656 | 0.596
CGUUCCUCUGUCGAUACCAGCUUCAGUUGGCGGCCAGUGAUGUUGGUAUCGCCGAUGCCAAGCCCUUGGCAGCGACAUGAGAACC [Uslaessobi] | 0.2 | 0.166 | 0.166 | 0.105 | 0.172
AGUACGGACGCGGCCGCCACUCAGGAGAAGAAGGUAGUGAUGUUGCUUAUGGAGAGAUCAAUCAAGAGGACCGGGUGCCGUGCAA [#07 K4 Tryptophan B Same State] | 0.285 | 0.34 | 0.426 | 0.534 | 0.338
GGAUAUGUAACAGAUACCAGCCGACGACAGUCACUGUGUCAUGUAGUGAUGUUACAAUCUGGCCCUUGGCAGCUGUCUCUGGUUU [theeternabot_exclusion_KL_Theo_B_27] | 0.31 | 0.214 | 0.278 | 0.25 | 0.25
UUCUAAAUGUCUGAUACCAGAGAAAAUAUAUGUAGUGAUGUUAUAUACAAAUUUAAUAAGCUCCCUUGGCAGCAGUAUGAAUUUU [AstrosExc-TheB#13] | 0.705 | 0.744 | 0.949 | 0.755 | 0.595
AAGGCCGCGCGGUGAUGUUUCAUCGCCGCCCGAGGACCGGUACGGCCGCCACUCGGAUAUAUCGCAGUGAUGUUGCUCUAUAUCA [Exclusion - Tryptophan A] | 0.16 | 0.151 | 0.155 | 0.167 | 0.203
UUCUGCAUCUCGGCCGCCACUCACUAGUGAUGUUAGUAAGGAGCGACUAGACAUGUCCCGUUAUUGAGGACCGGGAGAGGCUCUU [#13 K4 Tryptophan B Exclusion] | 0.208 | 0.162 | 0.192 | 0.162 | 0.14

Sequence | apparent KD of K4 kissing-loop reporter (input ligand: FMN 200 uM) [µM] | apparent KD of K4 kissing-loop reporter (input ligand: arginine 13.2 mM) [µM] | apparent KD of K4 kissing-loop reporter (input ligand: none) [µM] | apparent KD of K4 kissing-loop reporter [1] [µM] | apparent KD of K4 kissing-loop reporter [2] [µM]
ACGCGCGCGAGUGAUGUUCGGAGCGGCUGGCAGGAUAUGUAGCAAUGCAGAAGGGUCGUGGCGCUCCCUCCUGAAGGAGGGAGCG [#2 Exclusion - FMN A Attempt #25 (HarryS)] | 0.198 | 0.307 | 0.351 | 0.432 | 0.347
CCAACGUGAAAAGGAUAUCGCGAUGUGCACGACUAGUGAUGUUAGGAGAGGCUCGUUGAAUUGUACCGAGAAGGUUUUGAGUGGG [theeternabot_sameState_KL_FMN_B_16] | 0.227 | 0.16 | 0.24 | 0.231 | 0.196
GUUACGCAUGGAAGGAGCGCUCUCCGGUUGAUCGACACAGUGAUGUUGUGGUUCUACCGUAAGCAGGUAGGUCGCCAUGUGUAAC [Ex Arginine B K4 14] | 0.73 | 0.449 | 0.936 | 0.966 | 0.828
AAAAGAAGAAGUGAUACCAGACAAGCAGUGAUGUUGCGCCAAAGUGAGUGAUGUUCACCAGUCCCUUGGCAGCACAUGCCAAAAG [Same State Theophylline B GF 5] | 0.52 | 0.927 | 0.668 | 0.839 | 0.933
CCUUCUCUUGGUAGUGAUGUUAUCAAGGACAAGGAUAUCAUCUCAAUGAGAAGGUGUCCUUGAUAACAUGGAGGUCUGAAACAGA [Omei KL FMN A Exc C v8] | 0.0655 | 0.352 | 0.175 | 0.455 | 0.615
CCAUCGCUAUUCGAUACCAGUCAUUUUUUAUUUUUUUUUUUUUUUGGAGUGAUGUUCCAAGACCCUUGGCAGCGAAUAGUGAUGG [whbob_SS_Theo_B_th77] | 0.0913 | 0.109 | 0.0763 | 0.114 | 0.0681
GACUCAUGUAGAAGGAGCGUCAGAAGUUAUAGACAUGAGUGAUGUUCAUGUUAGCUGAUUUGACAGGUAGGUCGCUACAGCAGGA [KL-SSArg B16 #analogue] | 0.126 | 0.1 | 0.126 | 0.114 | 0.121
AUAUCUGUUCGAAAGAACGGAUCUUCGGAAGGAGCGCGUGAAAACGCAGGUAGGUCGCCGAAGUUAUUAGGUAGUGAUGUUACCU [Arginine A K4 7] | 0.129 | 0.0964 | 0.113 | 0.101 | 0.109
AAAUUGUUUAGAGGAUAUUCUUUAUUCGACAUAACCUUCUAUAAGGUGCAGUGAUGUUGCAAUAUAGGAGAAGGCUGAGCGAUAA [Exclusion FMN B Gf 14] | 0.311 | 0.177 | 0.217 | 0.196 | 0.178
CACUCGGUAUCAGAUACCAGACUAACGAUACCGAGUGUAUCGGGUAGUGAUGUUACCAUAGUCCCUUGGCAGCUGAUAUUCCCUA [Theo B SS t9a] | 0.252 | 0.203 | 0.258 | 0.21 | 0.199
CCGUGGAGUGAUGUUCCACGUACUACGGAUACCAGCUUUGCCAAAGGCCCUUGGCAGCCGCACGGCUCAGUGAUGUUGGGUCGCG [Same State Theophylline A G10] | 0.167 | 0.153 | 0.172 | 0.156 | 0.148
AGCAGUCACUCGAAAAACCAUCGAAGAUGGCGAGGACCGGUACGGCCGCCACUCGGAGUGAUGUUCCGAAGACUGCAAAAUAAAA [#SwitchBubble 15] | 0.35 | 0.438 | 0.368 | 0.313 | 0.435
UGACUGGACUGAAGGAGCGCUAAAACUCCUAGUGAUGUUGGGAAAUAGAGACAAAGUCUCAAGCAGGUAGGUCGCAGUCUAGUCU [ArgBS 23 #SwitchBubble #StaticStem] | 0.166 | 0.2 | 0.163 | 0.197 | 0.169
CACCAUGAAUUCUCUAGGAGUGAUGUUUUUCGAGGACCGGUACGGCCGCCACUCGGACGAGGACCGUGGGAGCGGCGAAGCGACU [wwegmullin] | 0.234 | 0.148 | 0.109 | 1.07 | 0.101
GGAUAGGACAGAGGAUAUCUCUGAGGCAAGAAAACUUGUCUCAAAAGAGAUGACUCAGUGAUGUUGAGAGAAGGCUGUCCUAUCG [FmnBX 8 - #SwitchBubble #StaticStem] | 0.256 | 0.143 | 0.144 | 0.147 | 0.153
UGUACCGAGUCAGGAUAUGCCGUCGAAAGACGAAAGCAGUGAUGUUGCAUCGAUCGAAAGAUCGUUGCAGAAGGGACUUGGUACU [FmnBS 23 #SwitchBubble #StaticStem #DoubleMagnetSystem] | 0.873 | 0.164 | 0.244 | 0.158 | 0.297
AAGCUCAGCGUGACUCGAUAAGAGUCACAACGAGGACCGGUACGGCCGCCACUCGAAAUAAGAGAGUGAUGUUCUCGCUGAGCAA [#SwitchBubble 6 #StaticStem #K4Late] | 0.631 | 0.344 | 0.62 | 0.824 | 0.548
AAUCAAUACAGAAGGAGCGUGACAUUUGCUAUUGUAAUUUUAGCUAGUGAUGUUAGCAUUUCACAGGUAGGUCGCUGUACAUUUA [JR_SSArginiB_Sub010] | 0.275 | 0.324 | 0.354 | 0.415 | 0.259
CCUAUCUCAUACGAUACCAGUGAAUUUAUAUUUAUUAGCAGUGAUGUUGCAUUCCAAGUACACCCUUGGCAGCGUAUGGGAUAGG [Ex Theophylline B K4 22] | 0.147 | 0.204 | 0.178 | 0.172 | 0.14
AAAUAACAGGCAGGAUAUGCUUAGUAAUAAGGCCAUAUAUACGUAUAGAGUGAUGUUUUGUACAAAGCAGAAGGGCUAAAUCCAU [FMN B Excl V1] | 0.154 | 0.151 | 0.16 | 0.105 | 0.167
CGUGAGGACCUGAGGUGAUGUAUAGUAUCGCGAGGACCGGUACGGCCGCCACUCGUGAAGAGAAAGGAGUGAUGUUCCGUAAGGG | 0.474 | 0.47 | 0.471 | 0.677 | 0.138
